Reference: the DeepSol protein solubility set

Assay: soluble on expression in E. coli; label from the status in PepcDB or PDB records

Sequence | soluble on expression in E. coli
MKRISPLRSLVACRWTNRARKRLAAVGLASICLLSACAPKFDKGEEVVQDKGSKQQEAVIPKYNIADSYYRVILPFKPSGARGEVVNDLNTRLDVDEFETGLMRLATEQFPSDEYLFQEGQYLDSETVGKWLARKKTTRQLKEEKMKPEDNLGLNPPISDTGTNEQKNKQSPIYLASILEHDYLVKIDNDKVKLGGIAIGLALNSVHYYSTEQGYPREVKIKDDVIEREGKRIAAEVLKRLRSMKGLGSVPITIALYKQAPRSSVVPGHFFAVAHVDGGDSTIDEWEAVNEEYYLFPSDEAEENHRDDWLKFNNFKSDVEDFFPNYTGIVGRGLYVNDQLQKLTINITMPFYGKAEVIGFTQYVTGLVMEKFPDYITVNVYIASAGQPESLIVRQAKADEPFVHIYQ | not soluble
MKKIATATIATAGFATIAIASGNQAHASEQDNYGYNPNDPTSYSYTYTIDAQGNYHYTWKGNWHPSQLNQDNGYYSYYYYNGYNNYNYNNYNNGYSYNNYSRYNNYSNNNQSYNYNNYNSYNTNSYRTGGLGASYSTSSNNVQVTTTMAPSSNGRSISSGYTSGRNLYTSGQCTYYVFDRVGGKIGSTWGNASNWANAAARAGYTVNNTPKAGAIMQTTQGAYGHVAYVESVNSNGSVRVSEMNYGYGPGVVTSRTISASQAAGYNFIHLEHHHHHH | not soluble
MSLPLVTLNSVRFAGMATCVPKRVVSNLTDCKPQIRPERERLVRNIGIELRRLTQEWQCFSDLAFDAASKLIESLEWKLEEIDALIVVTQSPDYLAPATAIILQDRLGLPHTTLAFDVNLGCSGYPFGLHLLGSLISAGGIKKGLVLVGDSGAQLNDPIFSDAGTATAMEFCADAPPMYFDLNSDGSGHKAIILPVGGHREPVGIQHLVPFRENENDHWHRAIDLQLDGTAVLSFSTQRVPPAVEKLLEYANASKDEVDYFIFHQANRMINETIRKKLALPVEKVPSTLRDFGNTSGASLPVTMTARINKQLEEGSKRLVLSGFGIGLSWGTCLVDIQGAKFPDLIESEGHHHHHH | soluble
MSNILIINGAKKFAHSNGQLNDTLTEVADGTLRDLGHDVRIVRADSDYNVKAEVQNFLWADVVIWQMPGWWMGAPWTVKKYIDDVFTEGHGTLYASDGRTRKDPSKKYGSGSLVQDKKYMLSLTWNAPMEAFTEKDQFFHGVGVDGVYLPFHKANQFLGMEPLPTFIANDVIKMPDVPRYTEEYRKHLVEIFG | not soluble
MRGSHHHHHHGMTIFEKKPDFTLFLQTLSWEIDDQVGIEVRNELLREVGRGMGTRIMPPPCQTVDKLQIELNALLALIGWGTVTLELLSEDQSLRIVHENLPQVGSAGEPSGTWLAPVLEGLYGRWVTSQAGAFGDYVVTRDVDAEDLNAVPRQTIIMYMRVRSSAT | soluble
ITEQTGQLVYDYNIEKDIADVAGNIEELTGFTSEELGNINLKLWTSRIHPEDLNRFLENHKKYLEPDRKSYRIEYRFRKKNGEYIYLEENWVSPEGDRKSSVKRVLGVIKNITERKQA | not soluble
MAHHHHHHMLPSVMDRYESYDFGKELLSLLKTASSTPGAHMGVFTGMGLLLAKYRPEKLLEHVNMHAKKINTHKMIAACEEYHLWLVLRVLHVNNEDWLAAATTMMHHHVDAWDHDVFKTVVSHLGSSDLVYNSISFYIQTNPQLLDDFLTSMFKTLDPERVLLEVKKLAPVHFIRQYLESAQERNSRRVNEAINKLYMEEEDFTALRDSVERFDNFDSAELSAELEKMELFEFRKIALFLHRRNKRFTHAVAVAKENKLYQDAIETAAESANPQIVEDLLDFFVVDHPDCFVACLYTCYDYLTPQVVMEKAWLNKRTDLAMPYFIQVIQDYTTKLSRMEKSMMDAQQLAKEAARRAGPLHTGANDPLMIQAGPANPMGGAMPMPMPMPMPMPMMGGVPPGNYGPPPQFDNRRPY | not soluble
MKLIRKYHMIPYENGSEYESAKRFLENILSASDVDPTTKCRFYQDVLYRIRNHPELPIVTEELFDVIQENLQQQNDNQKRNVKLERRNLKYEVIPEKRESYQEKYYESPPVYKAENEQLFDDVTYHNDGINHLKPRKNVYIKEEPEDEDYHMEYEKIPEINMEQNVNELFMEPQKHAPGKIKKSKKQKKDGTLSRPLGKKEKKSVQYATSNKRQKFDLKRGKSMNNVKPRKLYKLQLDEEDEDEEPMVDETPQNTEISIKKRPFQQDSTKNLNKRQKFDLKRRKNMSRVRPNKIYKMQNLKRNISSTIPDNGTNIPAAKRRVLHGSGSAPPPGSRVYCRLWKF | not soluble
